# In US11103562B2, “Composition comprising alkaline phosphatase for use in the treatment of arthritides” (AMRIF BV, priority 2017, dated 2021):
# B1: AP: human recombinant placenta alkaline phosphatase (hRESCAP; TNO, Zeist), an ectophosphatase (protein, UniProt P05187 23-506, looked up)
# Alkaline phosphatase, …: IIPVEEENPDFWNREAAEALGAAKKLQPAQTAAKNLIIFLGDGMGVSTVTAARILKGQKKDKLGPEIPLAMDRFPYVALSKTYNVDKHVPDSGATATAYLCGVKGNFQTIGLSAAARFNQCNTTRGNEVISVMNRAKKAGKSVGVVTTTRVQHASPAGTYAHTVNRNWYSDADVPASARQEGCQDIATQLISNMDIDVILGGGRKYMFRMGTPDPEYPDDYSQGGTRLDGKNLVQEWLAKRQGARYVWNRTELMQASLDPSVTHLMGLFEPGDMKYEIHRDSTLDPSLMEMTEAALRLLSRNPRGFFLFVEGGRIDHGHHESRAYRALTETIMFDDAIERAGQLTSEEDTLSLVTADHSHVFSFGGYPLRGSSIFGLAPGKARDRKAYTVLLYGNGPGYVLKDGARPDVTESESGSPEYRQQSAVPLDEETHAGEDVAVFARGPQAHLVHGVQEQTFIAHVMAFAACLEPYTACDLAPPAGTTD
# Test system: ED1-, ED2- and FRβ-positive macrophages in liver and spleen
# Assay: Macrophage infiltration in liver and spleen of arthritic rats (ED1/ED2 immunohistochemistry, FRβ immunofluorescence)
# Assay type: in vivo, rat
# Procedure: The arthritic and contralateral knees from all rats were dissected in toto and fixed for 7 days at 4° C. in 10% freshly made paraformaldehyde in PBS with 2% sucrose (pH=7.3) prior to decalcification in osteosoft (101728, Merck, Germany) for ˜2.5 weeks at room temperature. Thereafter, knees were embedded in paraffin. Sections of 5 μm were cut through the centre of the joint in longitudinal direction and stained with haematoxylin and eosin (HE) to assess the degree of inflammation in synovial tissue. Liver and spleen sections from all rats were dissected and fixed in 4% paraformaldehyde for 24 h before embedding in paraffin. Sections of 5 μm were cut and stained initially with HE and then for macrophages Staining for macrophages with ED1 (homologous to human CD68), and ED2 (homologous to human CD163, a marker for M2 anti-inflammatory macrophages), or isotype control antibody was performed. Images were captured using a Leica 4000B microscope and Leica digital camera DC500 (Microsystems B. V. Rijswijk, The Netherlands).
# Liver and spleen tissues collected at the end of the study were snap frozen in liquid nitrogen and stored at −80° C. Tissues were embedded in appropriate media (OCT; SKU4583, Tissue-Tek, Netherlands), cut using a cryotome cryostat (−20° C.) (Leica, The Netherlands) and placed on Superfrost (4951PLUS4, ThermoFisher, The Netherlands) glass slides for immunofluorescence (IF) staining Sections of 8 μm were cut and stained with haematoxylin and eosin. […]
# Stained slides of liver and spleen sections of arthritic rats and AP-treated arthritic rats were blinded and counted by two independent observers for FRβ, ED1- and ED2-positive synovial macrophages. For quantification, representative areas of liver and spleen sections were divided into 4 regions, each representing a central pulp and vein, respectively. The FRβ, ED1- and ED2-positive macrophages were counted at 400× magnification as described above. […] As a reference liver and spleen sections of healthy rats were analyzed as control.
molecule,measurement,setting,value
B1,reduction of both ED1- and ED2-positive infiltrating macrophages in spleen,AP-treated vs saline-treated arthritic rats,~30%
same,decrease of both ED1- and ED2-positive infiltrating macrophages in liver,"AP-treated vs saline-treated arthritic rats, p<0.001",~50%
same,FRβ-positive macrophages in liver and spleen,"after AP treatment, arthritic rats",lowered number
